Legend:
[1] = molecular target: GFP-JMY WH2#1 (aa841-883) (Mus musculus) (UniProt Q9QXM1); assay: co-IP; as a9 but lysate/antibody mixture with 2 µM Ca2+; actin CoIP/GFP IP ratio as percent difference from the Ca2+-free (1 mM EGTA) condition
[2] = molecular target: GFP-JMY CT (aa821-983) (Mus musculus) (UniProt Q9QXM1); assay: as above
[3] = molecular target: GFP-JMY CT (aa821-983) (Mus musculus) (UniProt Q9QXM1); assay: co-IP; L929 lysate with GFP-JMY CT, continuous 2 µM Ca2+ for 2 h, compared with continuous EGTA; anti-GFP immunoprecipitation, quantitative immunoblot

GFP-JMY CT (aa821-983) (Mus musculus), sequence (Q9QXM1 821-983): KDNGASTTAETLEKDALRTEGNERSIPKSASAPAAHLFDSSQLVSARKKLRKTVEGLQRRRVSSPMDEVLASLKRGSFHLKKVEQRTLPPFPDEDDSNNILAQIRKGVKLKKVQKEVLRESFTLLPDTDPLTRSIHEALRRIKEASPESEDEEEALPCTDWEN
GFP-JMY WH2#1 (aa841-883) (Mus musculus), sequence (Q9QXM1 841-883): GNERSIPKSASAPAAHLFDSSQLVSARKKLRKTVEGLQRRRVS

- percent change of coimmunoprecipitated actin with 2 µM Ca2+ against the Ca2+-free condition [1]: < -80%
- percent change of coimmunoprecipitated actin with 2 µM Ca2+ against the Ca2+-free condition [2]: < -80%
- percent change of coimmunoprecipitated actin with 2 µM Ca2+ against the Ca2+-free condition [3]: -80%
Substance: endogenous actin from L929 cells (from UniProt P60710 1-375) (natural protein)
